Data published in the DeepSol protein solubility set.

Test: soluble on expression in E. coli; label from the status in PepcDB or PDB records

Sequence | soluble on expression in E. coli
MSEFHSEISTLSPAPLWQFFDKICSIPHPSKHEEALAQYIINWATEQGFDVRRDPTGNVFIKKPATPGMENKKGVVLQAHIDMVPQKNEDTDHDFTKDPIQPYIDGEWVTAKGTTLGADNGIGMASCLAVLASKDIKHGPIEVLLTIDEEAGMTGAFGLEAGWLEGDILLNTDSEQEGEVYMGCAGGIDGAMTFDIKRDAIPTGFVTRQLTLKGLKGGHSGCDIHTGRGNANKLLGRFLAGHAQELDLRLVEFRGGSLRNAIPREAFVTVAVPAENQEKLAELFNYYTELLKAELGKVETGIVTFNEEIVTESQAFTAADQQRFIAALNACPNGVMRMSDEIEGVVETSLNVGVITTEENKVTVLCLIRSLIDSGRSQVESMLRSVAELAGAQVEFSGAYPGWKPDADSEIMAIFRDMYEGIYGHKPNIMVIHAGLECGLFKEPYPNMDMVSFGPTIKFPHSPDEKVKIDTVQLFWDQMVALLEAIPEKALEHHHHHH | soluble
AGGEDRGDGEPVSVVTVRVQYLEDTDPFACANFPEPRRAPTCSLDGALPLGAQIPAVHRLLGAPLKLEDCALQVSPSGYYLDTELSLEEQREMLEGFYEEISKGRKPTLILRTQLSVRVNAILEKLYSSSGPELRRSLFSLKQIFQEDKDLVPEFVHSEGLSCLIRVGAAADHNYQSYILRALGQLMLFVDGMLGVVAHSDTIQWLYTLCASLSR | not soluble
MGSDKIHHHHHHMKIRYGIIGVGGHGKNRHLIPLIKLKNKVEIVAVADVKKERCEEVSSQFNIKCYLDYMEMVEKESLNAVSIVTPTGLHSRIAINVLNKGVNVLVDKPLGSNLEEVKEVVNTARNKGLKLMVGYWSRFSPALQYGKEIIHNGLLGEPYVAYGYLVRRRGIPGIPTFIDKTLSGGRGALLDIGCYLIDNLLSLLKFRKPISVMGKVYTKFGNVKEEVKFNWGSWDPENFSLDDYAVGLVKLEGDVSLILEVGWSANVSHVEEKSYVRILGDKGGIEGSGHEAIVDISFHSRTENFLTDTKPVLRKVDPYFEMINAFVDSILTDREPPITGEESVTLHSIIDGIYKSSTEDKEVKISL | not soluble
MGSDKIHHHHHHMSDSHQGSCLCGAVRFRTKGALRGVVYCHCSQCRKQSGHFYAATNVADADIVIEGTESITWYEASAFAGRGFCKTCGSVLFWKPRTQDYISVMAGAFDKPTGLKGDCHIFVGDKGDYYSIDDGLPQFEKSTPSIAVAE | not soluble
MSHTAEIPMVPGSESPLELKPLKAVDPKAVYHRRAQRLLSLAKDSPLADYFELCRRVVAIQARLAAEADFGQLLAWGKDEAIPLSHLGSEADSYWQGLLQQLLSDLLPQVGEDLARVLRLLMQQSPEQLTSWGASLRQGHMSAVPARFSLFIWAAMGVYWSHWAPMVIKRIDQRKVAQQNLCPICGSHPVASVIVDQPRAGLRYLHCSLCESEWHYIRAHCTSCGQDKGTTLWSFDDTQAQVRIESCDECHGYTKMMFVEKSPLMDVVADDLATLMLDSELNAKGFGATTVNPLLLAHETEQ | not soluble
MSLPDHSLFRLRILPWCIALAMSGSYSSVWAEDDIQFDSRFLELKGDTKIDLKRFSSQGYVEPGKYNLQVQLNKQPLAEEYDIYWYAGEDDVSKSYACLTPELVAQFGLKEDVAKNLQWSHDGKCLKPGQLEGVEIKADLSQSALVISLPQAYLEYTWPDWDPPSRWDDGISGIIADYSITAQTRHEENGGDDSNEISGNGTVGVNLGPWRMRADWQTNYQHTRSNDDDDEFGGDDTQKKWEWSRYYAWRALPSLKAKLALGEDYLNSDIFDGFNYVGGSVSTDDQMLPPNLRGYAPDISGVAHTTAKVTVSQMGRVIYETQVPAGPFRIQDLGDSVSGTLHIRIEEQNGQVQEYDISTASMPYLTRPGQVRYKIMMGRPQEWGHHVEGGFFSGAEASWGIANGWSLYGGALGDENYQSAALGVGRDLSTFGAVAFDVTHSHTKLDKDTAYGKGSLDGNSFRVSYSKDFDQLNSRVTFAGYRFSEENFMTMSEYLDASDSEMVRTGNDKEMYTATYNQNFRDAGVSVYLNYTRHTYWDREEQTNYNIMLSHYFNMGSIRNMSVSLTGYRYEYDNRADKGMEGHHHHHH | not soluble
MGSDKIHHHHHHMEDLYLECPGCDEVTLHTVLKEKESKKHLKITVKCQECGTVHDIEKNFKLKDIKIVISRYDESEQSVLQIATDEILKVEDVILAFDESVEITALETEDSRRVSSSAAQDLKMIWARSIDVPKKVGISINSRESTYSFNILVPQDYVFEEKKIYRAGRDFFRIKQIKTEKGNFSRELARKIKRIYGEPVKPLRDYTDLTDYML | not soluble
MGRKIVFFDIDGTLLDEQKQLPLSTIEAVRRLKQSGVYVAIATGRAPFMFEHVRKQLGIDSFVSFNGQYVVFEGNVLYKQPLRREKVRALTEEAHKNGHPLVFMDAEKMRASIGDHPHIHVSMASLKFAHPPVDPLYYENKDIYQALLFCRAEEEEPYVRNYPEFRFVRWHDVSTDVLPAGGSKAEGIRMMIEKLGIDKKDVYAFGDGLNDIEMLSFVGTGVAMGNAHEEVKRVADFVTKPVDKEGIWYGLKQLQLIR | soluble
MSLTEKCVIKIGGSVLKDGSSLPRVMDIISHFRSPILVVSAFGGITDALYRFYEYDESRMDKLRDLLLMHLGILWKYNIEAHPEISIQDSSILDQDAYVSYGEKMSAFTLARFLTGNGIPAAPIYTDEAGLIVEEISKERTVDLEGSRAFFENIARVETSGKVPVVTGFFGIDRYGKTRILGRNSSDYSAVAVAAILGIREVILIKDVPGIYMNLEDRTSIVNRIDYETALRIVDRGSKVVHRAALRLAMKMGMNLLITSPENLESGTVIGDLFEGHHHHHH | soluble
MGSDKIHHHHHHMAKVFLKRMNRRISGGHLWIFYNEILKVEGEYENGSVVDVFRPDGSFFGKGYINDNSKIRVRILTWKNEVIDRNFIKNRIESALKRKKKLVKETTAFRVVHSEGDFLPGLIVDLFGDYLVFQITTLGMEKMKDWILDSLVEIFKPKGIYEKSEGTFREKEGLDNREEWVYGKGPELIEFEMNGFKFLADTRGQKTGFFLDQRENARMVMDLAEGKVCLDVFSYTGNFAVHLLKGGAKHVTLVDYSERALEVAREILKLNGFDSSRYDLLPGNAFDILKSFDREGRKYDLVVLDPPSFAKSSSNLESARRGYKEINLRAMRILKKPGVLVTSSCTQIVSEELFREILFDASFDTKTSLTVLRRGGQPPDHPVLMNVPETQYLKFYILQVDKR | not soluble
MGSDKIHHHHHHMSASMPAYMSDPTDEQLSALNMAMDHKSFKVVAYAGAGKTTTLKLIGERLRGRGLYLAFNKAIANDARAKFPSHVECRTFHSLAYRHVARDITAKLSLPRFSPKRLGDDLGLQPVQVRRQMDGVNKYITLTPARLSRFVSDAISNFCSTHASYPAPRHILFPSWLDGSDAEQLREMLYPAVEQRWLQSIDARHPAGIGHDIYLKLWALSKPSIPADFILFDEAQDADPLMMGILTQQPRQVIYVGDAHQQIYEWRGAVNAMKRLPLPQTLLTQSFRFGEPIAEIANTLLKALQEDVPLKGNPNKQSSTDKGMVHSKKDAILCRTNAAAMSQLLTGLKLGHKVALQADTDRMLKFCQAAENLKNGKSAYGVPELAYFYNWGDVQEYSETNEGSDLKTLVKLVDDHGTNVLSQAVNSLSSIENADYVISTAHKAKGLEWGKVQLDDDFYYDVTTNAVKISPEELRLLYVACTRAQSNLDIHNIKDLISGLQTGKKVVFGNS | not soluble
MSLYVVISPTGRTDGNIPARGYAGPSGRLDVIARAYNAILEPNATLAALLMGGPLPPRLLIAPLSCKDIVRSERSFMIEASRALRGRRSCFTVNDEGVEALASLLRRFKPRILLAEKGGDISSHWGEMCSSSPTFIAGSHLDPPHGLIKHLERSLGGFLRVSVGPLSLHTDHVFLLVSALRLPMHATSIEHH | not soluble
MTYGIVIVSHSPEIASGLKKLIREVAKNISLTAIGGLENGEIGTSFDRVMNAIEENEADNLLTFFDLGSARMNLDLVSEMTDKELTIFNVPLIEGAYTASALLEAGATFEAIKEQLEKMLIEKRSHHHHHH | soluble
MVTEDVRATADDIADMEIRGAATIARAAADALESQATDSDADSPAAFRAELRAAARHLRDTRPTAVSLPNALRYVLGNTDGETVAALRASVTDAADAFRQQLDRAQDDLGAIGANRLRDGDTVMTHCHSTDALACVKAALDDGKHIEAVVKETRPRKQGHITADQLREWGVPVTLIVDNAGRRYLDAVDHVLVGADSIAADGSVINKIGTSMLAVVARERGVPVMVAAQTLKLHPDTLTGNTVEIEMRDETEVLAAADRHQLGAPDVENPAFDVTPPRYVDAIVTERGQFPPESIVTLMRELYGDGTTEPWAEDLEHHHHHH | not soluble
MYVLIGGAGLVGLTLAQKLVELGHTVAIIDVDHTACRYAREQVGAMAFEGSAVSTEVLLEAGIRKADALAAVLRNDALNLAMVMLAKHYGVSHILSRMRHADFAQPLRLAGANHVISTVELSVSTMVNAIEYPQVESMMHFEQGQIEVLKISIPNSCYVANRSLAEIAQDSRFPSGSLIIGYQPHPHEDLVIPNGSTVLESGSTILIATKPGSLHQVIDFIEGCKLEHHHHHH | not soluble
MTVGLGMPQPPAPTLAPRRATRQLMVGNVGVGSDHPVSVQSMCTTKTHDVNSTLQQIAELTAAGCDIVRVACPRQEDADALAEIARHSQIPVVADIHFQPRYIFAAIDAGCAAVRVNPGNIKEFDGRVGEVAKAAGAAGIPIRIGVNAGSLDKRFMEKYGKATPEALVESALWEASLFEEHGFGDIKISVKHNDPVVMVAAYELLAARCDYPLHLGVTEAGPAFQGTIKSAVAFGALLSRGIGDTIRVSLSAPPVEEVKVGNQVLESLNLRPRSLEIVSCPSCGRAQVDVYTLANEVTAGLDGLDVPLRVAVMGCVVNGPGEAREADLGVASGNGKGQIFVRGEVIKTVPEAQIVETLIEEAMRLAAEMGEQDPGATPSGSPIVTVS | soluble
MEETEFVPHKLTELRVGTLYGPQIYMTSGQGNSGFDYDMAVLFAEYLDVPLKMVPYTNLAELYDALKKNEIDIIAAGMTETPARREHFRLGPPLYRVNQVLVYREGMPAPKDISDLKGKITVIADSSFVETLTQLQKRHPTLVWDQVTDKDNEELLTMIANKEIDYTIADSSSVQINRRYLPVLRSGLVLEEKLNVVWLLPPTHSDGLMSQLLAFWHQEKLAGTLDHLNEKYFGHVKRFDYIDTRAFLRAIETVLPRYRQHFETHAGDLDWRKLAATSYQESHWNPNARSPTGVRGMMMLTQPTAKEIGITNRLDAEESIRGGAAYLRDMINRLPESIPESQRMWFALASYNIGYAHVEDARKLAESMELNPNAWQDLKKVLPLLQKRKYYQKTRYGYARGSEAVHYVDSIRRYYDTLVWVDNQSKQQNSEEVAPSDLTAEETPVPAPGTLSPDKPKLEHHHHHH | soluble
MKSKKILIVGAGFSGAVIGRQLAEKGHQVHIIDQRDHIGGNSYDARDSETNVMVHVYGPHIFHTDNETVWNYINKHAEMMPYVNRVKATVNGQVFSLPINLHTINQFFSKTCSPDEARALIAEKGDSTIADPQTFEEQALRFIGKELYEAFFKGYTIKQWGMQPSELPASILKRLPVRFNYDDNYFNHKFQGMPKCGYTQMIKSILNHENIKVDLQREFIVDERTHYDHVFYSGPLDAFYGYQYGRLGYRTLDFKKFIYQGDYQGCAVMNYCSVDVPYTRITEHKYFSPWEQHDGSVCYKEYSRACEENDIPYYPIRQMGEMALLEKYLSLAENETNITFVGRLGTYRYLDMDVTIAEALKTAEVYLNSLTDNQPMPVFTVSVGHHHHHH | soluble
